B1: scFv; the commonest letter at each place (parent)
chain 1: EVKLDETGGGLVQPGRPMKLSCVASGFTFSDYWMNWVRQSPEKGLEWVAQIRNKPYNYETYYSDSVKGRFTISRDDSKSSVYLQMNNLRVEDMGIYYCTGSYYGMDYWGQGTSVTVS
chain 2: DVVMTQTPLSLPVSLGDQASISCRSSQSLVHSNGNTYLRWYLQKPGQSPKVLIYKVSNRFSGVPDRFSGSGSGTDFTLKISRVEAEDLGVYFCSQSTHVPWTFGGGTKLEIK

In the data set “fluorescein” the parent is B1. Kind of data set: Kd (Tite-Seq). The conditions noted are these: with fluorescein; format: scFv 4-4-20, heavy + light.
Variants of B1 are the subject of data set [1]. Put plainly: yeast surface expression (ratio to wild type); higher = more expressed. The following applies: format: scFv 4-4-20, heavy + light.

As to chain 1 M105W W108V, the equilibrium dissociation constant (Kd) with fluorescein came out at 0.000454 µM. Also, in data set [1], the yeast surface expression came out at 0.756.

Take chain 1 Y103K D106M: the dissociation constant (Kd) with fluorescein is not below 10 µM. In addition, the yeast surface expression in data set [1] amounted to 0.716.

Regarding chain 1 W108P G109N, the Kd in the data set with fluorescein was not below 10 µM. Further, the yeast surface expression in data set [1] was found to be 0.473.

Take chain 1 Y102R M105N: the dissociation constant (Kd) in the data set with fluorescein was 0.0318 µM. For the same variant, the yeast surface expression in data set [1] turned out to be 0.764.

As to chain 1 G100I Y103E, in the data set with fluorescein, the dissociation constant (Kd) is not below 10 µM. Moreover, in data set [1], the yeast surface expression came to 0.879.

For chain 1 W36H V37F, the Kd with fluorescein is not below 10 µM. In addition, the yeast surface expression in data set [1] was determined as 0.307.

As for chain 1 S30V M34H, the Kd with fluorescein was not below 10 µM. In addition, the yeast surface expression in data set [1] stood at 0.497.

For the variant chain 1 M34H V37P, the Kd with fluorescein was not below 10 µM. Further, the yeast surface expression in data set [1] was 0.3.

As for chain 1 T28N D31C, in the data set with fluorescein, the dissociation constant (Kd) amounted to 0.00468 µM. For the same variant, in data set [1], the yeast surface expression amounted to 0.826.

Regarding chain 1 W108H, the Kd with fluorescein came out at 0.00468 µM. In data set [1], the yeast surface expression was found to be 0.333.

chain 1 W108R: the dissociation constant Kd in the data set with fluorescein was not below 10 µM. Moreover, the yeast surface expression in data set [1] was found to be 0.455.

As to chain 1 F29Y M34K, the dissociation constant (Kd) with fluorescein is not below 10 µM. Also, in data set [1], the yeast surface expression was 0.646.

For chain 1 S101L M105F, the dissociation constant Kd in the data set with fluorescein was not below 10 µM. Besides, the yeast surface expression in data set [1] was 0.521.

As to chain 1 S30I, the Kd with fluorescein came out at 0.00215 µM. For the same variant, in data set [1], the yeast surface expression came to 0.787.

Consider chain 1 G104V W108A, for which the Kd in the data set with fluorescein was not below 10 µM. Moreover, in data set [1], the yeast surface expression stood at 0.141.

In the case of chain 1 S30F N35H, the dissociation constant Kd in the data set with fluorescein is not below 10 µM. Moreover, the yeast surface expression in data set [1] is 0.53.

As for chain 1 G104E M105V, the Kd with fluorescein was not below 10 µM. Further, the yeast surface expression in data set [1] came out at 0.886.

As to chain 1 Y103A W108D, the equilibrium dissociation constant (Kd) with fluorescein is not below 10 µM. In data set [1], the yeast surface expression came to 0.576.

For the variant chain 1 G100A S101F, the Kd with fluorescein was not below 10 µM. Besides, the yeast surface expression in data set [1] is 0.652.

With chain 1 Y102A M105T, in the data set with fluorescein, the Kd is 0.176 µM. Besides, the yeast surface expression in data set [1] worked out at 1.08.

As for chain 1 G104C Y107V, the dissociation constant Kd with fluorescein was not below 10 µM. The yeast surface expression in data set [1] is 0.461.

For chain 1 W108C G109E, the Kd with fluorescein was not below 10 µM. Also, the yeast surface expression in data set [1] was determined as 0.262.

Take chain 1 D106Q Y107I: the Kd with fluorescein is not below 10 µM. Moreover, the yeast surface expression in data set [1] amounted to 0.712.

As for chain 1 S101L Y103Q, in the data set with fluorescein, the Kd was not below 10 µM. For the same variant, the yeast surface expression in data set [1] is 0.786.

For the variant chain 1 Y32L V37R, the dissociation constant Kd with fluorescein is not below 10 µM. For the same variant, the yeast surface expression in data set [1] was 0.0981.

For the variant chain 1 G104S W108R, the Kd with fluorescein is not below 10 µM. Also, in data set [1], the yeast surface expression was determined as 0.26.

Consider chain 1 D31L Y32A, for which the Kd with fluorescein was determined as 0.0944 µM. In addition, the yeast surface expression in data set [1] worked out at 0.73.

Regarding chain 1 G104R M105C, the dissociation constant (Kd) with fluorescein is not below 10 µM. Besides, the yeast surface expression in data set [1] is 0.315.

Take chain 1 Y32M V37T: in the data set with fluorescein, the Kd is not below 10 µM. For the same variant, the yeast surface expression in data set [1] amounted to 0.538.

chain 1 S101K Y103R: in the data set with fluorescein, the Kd is not below 10 µM. The yeast surface expression in data set [1] worked out at 0.714.

For the variant chain 1 Y103P D106M, the dissociation constant Kd with fluorescein is not below 10 µM. The yeast surface expression in data set [1] is 0.742.

For chain 1 M34I V37I, the dissociation constant (Kd) in the data set with fluorescein was 0.00827 µM. Also, in data set [1], the yeast surface expression was determined as 0.831.

In the case of chain 1 G100Y M105R, the Kd with fluorescein is not below 10 µM. Besides, the yeast surface expression in data set [1] came to 0.513.

On to chain 1 W33Y N35R, for which the dissociation constant (Kd) with fluorescein was not below 10 µM. Further, in data set [1], the yeast surface expression amounted to 0.524.

Turning to chain 1 Y102V Y103C, the equilibrium dissociation constant (Kd) with fluorescein was not below 10 µM. In data set [1], the yeast surface expression turned out to be 0.798.

Take chain 1 Y32K M34F W36H: the dissociation constant (Kd) with fluorescein is not below 10 µM. The yeast surface expression in data set [1] came out at 0.381.

Consider chain 1 S101Y G104C, for which the Kd with fluorescein is not below 10 µM. For the same variant, the yeast surface expression in data set [1] worked out at 0.249.

For chain 1 T28L D31G, in the data set with fluorescein, the dissociation constant (Kd) turned out to be 0.00128 µM. Moreover, in data set [1], the yeast surface expression is 0.717.

Take chain 1 G100T G104V D106E: the Kd with fluorescein was not below 10 µM. Besides, the yeast surface expression in data set [1] was found to be 0.398.

chain 1 S101G D106A: the equilibrium dissociation constant (Kd) with fluorescein amounted to 0.0457 µM. Also, the yeast surface expression in data set [1] was determined as 0.675.

On to chain 1 D31A M34L V37G, for which the Kd with fluorescein is 0.021 µM. Besides, the yeast surface expression in data set [1] came to 0.0111.

On to chain 1 S30W W36D, for which the Kd with fluorescein is not below 10 µM. Further, the yeast surface expression in data set [1] was found to be 0.104.

As for chain 1 W108S G109N, in the data set with fluorescein, the dissociation constant Kd was not below 10 µM. Also, the yeast surface expression in data set [1] was found to be 0.413.

For chain 1 M105E D106Y, in the data set with fluorescein, the Kd was not below 10 µM. For the same variant, in data set [1], the yeast surface expression worked out at 0.534.

On to chain 1 T28A Y32K, for which the Kd in the data set with fluorescein was determined as 3.55 µM. The yeast surface expression in data set [1] was determined as 1.02.

On to chain 1 Y32C V37Q, for which, in the data set with fluorescein, the dissociation constant Kd is not below 10 µM. The yeast surface expression in data set [1] is 0.692.

In the case of chain 1 S30H N35E, the dissociation constant Kd in the data set with fluorescein is not below 10 µM. In data set [1], the yeast surface expression was determined as 0.504.

As for chain 1 Y32V M34Q, the dissociation constant Kd with fluorescein is not below 10 µM. For the same variant, the yeast surface expression in data set [1] was found to be 0.849.

For the variant chain 1 Y102P, the Kd with fluorescein is not below 10 µM. For the same variant, the yeast surface expression in data set [1] was determined as 0.77.

Turning to chain 1 T28E M34R, in the data set with fluorescein, the equilibrium dissociation constant (Kd) was not below 10 µM. Besides, the yeast surface expression in data set [1] came out at 0.531.

As for chain 1 S30M M34P, the dissociation constant Kd with fluorescein was not below 10 µM. Also, the yeast surface expression in data set [1] is 2.67.

Consider chain 1 Y32R W36Y, for which the Kd in the data set with fluorescein is 7.72 µM. For the same variant, in data set [1], the yeast surface expression amounted to 0.635.

Take chain 1 W108N G109N: the dissociation constant (Kd) with fluorescein was not below 10 µM. In data set [1], the yeast surface expression was found to be 0.335.

In the case of chain 1 Y102V G104K, the equilibrium dissociation constant (Kd) with fluorescein is not below 10 µM. For the same variant, the yeast surface expression in data set [1] came to 0.494.

With chain 1 Y102T Y103R, the equilibrium dissociation constant (Kd) in the data set with fluorescein was not below 10 µM. The yeast surface expression in data set [1] came to 1.21.

On to chain 1 G104F D106K, for which the equilibrium dissociation constant (Kd) in the data set with fluorescein was not below 10 µM. In data set [1], the yeast surface expression amounted to 0.201.

On to chain 1 D31H W33P, for which the Kd in the data set with fluorescein was not below 10 µM. Also, the yeast surface expression in data set [1] is 0.631.

Consider chain 1 G100T D106V, for which the dissociation constant (Kd) in the data set with fluorescein was not below 10 µM. Also, the yeast surface expression in data set [1] amounted to 0.468.

Usually Kd stands for the free concentration of one partner at which half of the binding sites on the other are occupied at equilibrium, for simple one-to-one binding.

Source of the values: the FLAb antibody collection (doi:10.7554/elife.23156).
